From PMC6265470, “Structural, functional and biological insights into the role of Mycobacterium tuberculosis VapBC11 toxin–antitoxin system: targeting a tRNase to tackle mycobacterial adaptation” (Nucleic Acids Research, 2018)

How the values were obtained:
[1] = target: VapC11 as co-expressed and co-purified with VapB11 in the VapBC11 complex (Mycobacterium tuberculosis) (UniProt P9WFA4); experiment: […] (pH 8.0), 150 mM NaCl, […]
[2] = system: VapC11 D5A (Mycobacterium tuberculosis); experiment: BLI; conditions: BLI: 20 mM HEPES pH 7.5, 150 mM NaCl, 25 C

Substance | percent of the population as heterooctamer [1] [%] | stoichiometry N (VapB11 per VapC11 (2:4)) [1] | stoichiometry N (VapB11 per VapC11 (4:4)) [1] | Kd [2] [nM]
VapB11 (residues 6-72) as co-expressed and co-purified with VapC11 in the VapBC11 complex (from UniProt P9WLU2 6-72) (domain or fragment) | 80 | 0.5 | 1 | –
tRNA-LeuCAG (leuT) | – | – | – | 0.5
